Source: paper doi:10.1101/2025.03.07.642083

Molecular target: T1, ToAubZL (Aureochrome1 bZIP+LOV) (Thalassiosira oceanica, UniProt K0SY93 276-520)
T1 sequence: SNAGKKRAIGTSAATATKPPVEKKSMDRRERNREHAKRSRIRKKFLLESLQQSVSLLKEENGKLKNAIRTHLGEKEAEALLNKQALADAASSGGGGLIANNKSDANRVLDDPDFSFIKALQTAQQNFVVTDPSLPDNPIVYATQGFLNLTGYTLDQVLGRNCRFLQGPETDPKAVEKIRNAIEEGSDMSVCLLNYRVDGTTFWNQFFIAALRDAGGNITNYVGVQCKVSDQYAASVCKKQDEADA
Assay: EMSA

B1: Aureo-box substrate DNA (dsDNA)
DNA 1: TGTAGCGTCTGACGTGGTTCCCAC
DNA 2: GTGGGAACCACGTCAGACGCTACA
  binding result: binds
